How the values were obtained:
Assay in all cases: SEC; E. coli-expressed and purified human HtrA1- to 4-PD/PDZ constructs, purified as homotrimers by size-exclusion chromatography; conditions not shown (SI Appendix)
[1] = molecular target: human HtrA1-PD/PDZ (N domain-deleted HtrA1, protease domain and PDZ domain) (human)
[2] = molecular target: human HtrA2-PD/PDZ (protease domain and PDZ domain) (human)
[3] = molecular target: the molecule itself

| Molecule | stoichiometry N [3] | further results |
| --- | --- | --- |
| human HtrA1-PD/PDZ (N domain-deleted HtrA1, protease domain and PDZ domain) (domain or fragment) |  | stoichiometry N [1]: 3 |
| human HtrA2-PD/PDZ (protease domain and PDZ domain) (domain or fragment) |  | stoichiometry N [2]: 3 |
| human HtrA3-PD/PDZ (protease domain and PDZ domain) (domain or fragment) GLHQLSSPRYKFNFIADVVEKIAPAVVHIELFLRHPLFGRNVPLSSGSGFIMSEAGLIITNAHVVSSNSAAPGRQQLKVQLQNGDSYEATIKDIDKKSDIATIKIHPKKKLPVLLLGHSADLRPGEFVVAIGSPFALQNTVTTGIVSTAQREGRELGLRDSDMDYIQTDAIINYGNSGGPLVNLDGEVIGINTLKVTAGISFAIPSDRITRFLTEFQDKQIKDWKKRFIGIRMRTITPSLVDELKASNPDFPEVSSGIYVQEVAPNSPSQRGGIQDGDIIVKVNGRPLVDSSELQEAVLTESPLLLEVRRGNDDLLFSIAPEVVM | 3 |  |
| human HtrA4-PD/PDZ (protease domain and PDZ domain) (domain or fragment) TGTRSAGPLRRNYNFIAAVVEKVAPSVVHVQLWGRLLHGSRLVPVYSGSGFIVSEDGLIITNAHVVRNQQWIEVVLQNGARYEAVVKDIDLKLDLAVIKIESNAELPVLMLGRSSDLRAGEFVVALGSPFSLQNTATAGIVSTKQRGGKELGMKDSDMDYVQIDATINYGNSGGPLVNLDGDVIGVNSLRVTDGISFAIPSDRVRQFLAEYHEHQMKGKAFSNKKYLGLQMLSLTVPLSEELKMHYPDFPDVSSGVYVCKVVEGTAAQSSGLRDHDVIVNINGKPITTTTDVVKALDSDSLSMAVLRGKDNLLLTVIPETIN | 3 |  |

Reference: PMC7211935, “Development of a therapeutic anti-HtrA1 antibody and the identification of DKK3 as a pharmacodynamic biomarker in geographic atrophy” (Proceedings of the National Academy of Sciences of the …, 2020)
